Test results from paper PMC3159028 (Journal of molecular biology, 2011).
Read-outs that look alike come from different tables or passages of the source.

Assays:
SEC [1] = molecular target: the molecule itself; test: SEC
SEC [2] = molecular target: the molecule itself; test: SEC; remark: listed apart in the source

| Protein | stoichiometry N (SEC [1]) | stoichiometry N (SEC [2]) |
| --- | --- | --- |
| hNudC^1–141, N-terminal fragment of human NudC (dimerization domain) (domain or fragment) not shown | 2 | – |
| human NudC, full length (NudC^1–331) (natural protein) not shown | – | 2 |
| human NudC-like protein (NudCL), full length (natural protein, UniProt Q8IVD9 1-361, looked up) METGAAELYDQALLGILQHVGNVQDFLRVLFGFLYRKTDFYRLLRHPSDRMGFPPGAAQALVLQVFKTFDHMARQDDEKRRQELEEKIRRKEEEEAKTVSAAAAEKEPVPVPVQEIEIDSTTELDGHQEVEKVQPPGPVKEMAHGSQEAEAPGAVAGAAEVPREPPILPRIQEQFQKNPDSYNGAVRENYTWSQDYTDLEVRVPVPKHVVKGKQVSVALSSSSIRVAMLEENGERVLMEGKLTHKINTESSLWSLEPGKCVLVNLSKVGEYWWNAILEGEEPIDIDKINKERSMATVDEEEQAVLDRLTFDYHQKLQGKPQSHELKVHEMLKKGWDAEGSPFRGQRFDPAMFNISPGAVQF | – | 2 |
| mouse NudC-like 2 protein (NudCL2), full length (natural protein, UniProt Q9CQ48 1-157, looked up) MSAPFEERSGVVPCGTPWGQWYQTLEEVFIEVQVPPGTRAQDIQCGLQSRHVALAVGGREILKGKLFDSTIADEGTWTLEDRKMVRIVLTKTKRDAANCWTSLLESEYAADPWVQDQMQRKLTLERFQKENPGFDFSGAEISGNYTKGGPDFSNLEK | – | 2 |
